PMC10442075

What was measured:
[1] = target: catalytic subunit of mouse PKA (mouse) (UniProt P05132)
[2] = target: catalytic subunit of mouse PKA (mouse) (UniProt P05132); remark: listed apart in the source

unphosphorylated GSK3β (Glycogen Synthase Kinase 3β), sequence (P49841 whole entry): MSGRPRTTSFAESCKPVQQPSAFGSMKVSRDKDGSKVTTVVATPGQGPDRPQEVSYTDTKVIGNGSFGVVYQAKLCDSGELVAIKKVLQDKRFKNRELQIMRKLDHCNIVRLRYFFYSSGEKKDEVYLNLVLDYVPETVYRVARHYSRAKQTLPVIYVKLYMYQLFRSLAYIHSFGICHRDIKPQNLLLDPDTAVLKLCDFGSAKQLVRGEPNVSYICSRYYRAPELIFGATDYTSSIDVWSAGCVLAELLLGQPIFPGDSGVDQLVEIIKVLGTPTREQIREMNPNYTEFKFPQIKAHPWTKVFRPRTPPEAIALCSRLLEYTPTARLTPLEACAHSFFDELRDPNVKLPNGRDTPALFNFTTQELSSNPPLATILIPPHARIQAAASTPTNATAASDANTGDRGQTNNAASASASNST

## unphosphorylated GSK3β (Glycogen Synthase Kinase 3β) (from UniProt P49841 1-420) (enzyme)
[1]
  fold increase in KM for PKA phosphorylation of GSK3β at Ser9 on addition of the Axin (381-407) peptide: 7 fold
[2]
  fold increase in KM for PKA phosphorylation of GSK3β at Ser9 (20 nM PKA) on addition of 500 nM full-length Axin: 4 fold
